Reference: IntAct's records for PubMed 17571076

B1: Mitochondrial protein import protein ZIM17 (Saccharomyces cerevisiae), P42844 (parent)
chain: MIPRTRTLLQSKIPITRYFARCWAPRVRYNVCRTLPAAALHTNIIAHNEVKKDDKKVHLGSFKVDKPKMMIAFTCKKCNTRSSHTMSKQAYEKGTVLISCPHCKVRHLIADHLKIFHDHHVTVEQLMKANGEQVSQDVGDLEFEDIPDSLKDVLGKYAKNNSENASQLPHPSQK

Variants of: B1
Conditions: with hsp77_yeasx SSC1, P0CS91
Sequence of hsp77_yeasx SSC1, P0CS91 (P0CS91 whole entry): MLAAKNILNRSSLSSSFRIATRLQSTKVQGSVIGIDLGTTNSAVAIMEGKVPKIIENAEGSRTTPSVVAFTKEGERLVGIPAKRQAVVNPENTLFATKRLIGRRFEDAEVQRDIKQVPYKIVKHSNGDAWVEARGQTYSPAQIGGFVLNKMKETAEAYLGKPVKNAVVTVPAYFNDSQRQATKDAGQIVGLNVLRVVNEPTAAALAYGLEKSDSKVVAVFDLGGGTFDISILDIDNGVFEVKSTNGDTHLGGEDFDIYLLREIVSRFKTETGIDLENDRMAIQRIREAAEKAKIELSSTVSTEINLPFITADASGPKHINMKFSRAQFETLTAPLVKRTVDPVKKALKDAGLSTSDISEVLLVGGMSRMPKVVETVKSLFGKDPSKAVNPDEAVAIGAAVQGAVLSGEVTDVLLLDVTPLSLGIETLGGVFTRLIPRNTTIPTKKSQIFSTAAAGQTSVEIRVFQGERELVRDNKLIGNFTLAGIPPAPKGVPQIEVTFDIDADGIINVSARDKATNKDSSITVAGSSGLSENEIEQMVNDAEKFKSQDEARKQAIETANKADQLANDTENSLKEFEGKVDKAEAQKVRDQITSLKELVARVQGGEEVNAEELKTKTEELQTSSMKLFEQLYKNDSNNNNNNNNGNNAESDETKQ

Q: With MIPRTRTLLQSKIPITRYFARCWAPRVRYNVCRTLPAAALHTNIIAHNEVKKDDKKVHLGSFKVDKPKMMIAFTCKKCNTRSSHTMSKQAYEKGTVLISCPHCKVRALIADHLKIFHDHHVTVEQLMKANGEQVSQDVGDLEFEDIPDSLKDVLGKYAKNNSENASQLPHPSQK [H107A] as the variant, how does the “effect of a mutation on the interaction” value read?
A: disrupting interaction

Q: For MIPRTRTLLQSKIPITRYFARCWAPRVRYNVCRTLPAAALHTNIIAHNEVKKDDKKVHLGSFKVDKPKMMIAFTCKKCNTRSSHTMSKQAYEKGTVLISCPHCKVAHLIADHLKIFHDHHVTVEQLMKANGEQVSQDVGDLEFEDIPDSLKDVLGKYAKNNSENASQLPHPSQK [R106A], which “effect of a mutation on the interaction” value is on record?
A: disrupting interaction

Variants of: B1
Conditions: with hsp77_yeasx SSC1, P0CS91
Remark: another data set of the same source

Q: Which “effect of a mutation on the interaction” value does the source give for MIPRTRTLLQSKIPITRYFARCWAPRVRYNVCRTLPAAALHTNIIAHNEVKKDDKKVHLGSFKVDKPKMMIAFTCKKCNTRSSHTMSKQAYEKGTVLISCPHCKVRHLIAAHLKIFHDHHVTVEQLMKANGEQVSQDVGDLEFEDIPDSLKDVLGKYAKNNSENASQLPHPSQK [D111A] here?
A: disrupting interaction
